In US12012446B2, “Epstein-Barr virus antibodies and uses thereof” (priority 2017, dated 2024):

Target: T1, EBV gH/gL (Epstein-Barr virus, UniProt P03212+P03231)
T1 construct: expressed in transfected cells; host or cells: CHO cells
Assay: Flow cytometry of gH/gL-expressing CHO cells
Format: binding
Excerpt: FIGS. 10A-10B show the comparison of murine E1D1 (mE1D1) and humanized E1D1 (hE1D1). FIG. 10A: Sequence comparison of mE1D1 and hE1D1. Alignment of heavy chain (i) and light chain (ii) variable region amino acid sequences by the Clustal W. Murine E1D1 heavy chain and light chain AA sequences are represented by SEQ ID NOs: 183 and 184, respectively, and humanized E1D1 heavy chain and light chain AA sequences are represented by SEQ ID NOs: 185 and 186, respectively. Regions of identical sequence are represented by *. Regions of similarity are represented by :. FIG. 10B: Flow cytometric analysis of mE1D1 and hE1D1 gH/gL specificity. CHO wild type cells and gH/gL-expressing CHO cells were stained with mE1 D1 and hE1 D1, followed by secondary goat anti-mouse or anti-human conjugated to AF488. Unstained cells and cells stained with secondary goat anti-mouse or anti-human conjugated to AF488 alone, were used as negative controls.
Similar to Example 4, humanized E1D1 antibody was produced and its specificity was compared to mouse E1D1 by flow cytometric analysis (FIG. 10).
Flow cytometric analysis of gp350 and gH/gL specificity was performed. CHO wild type cells and gp350 or gH/gL-expressing CHO cells were stained with primary antibodies, followed by secondary goat anti-mouse or anti-human conjugated to AF488. […]

B1: humanized E1D1: humanized anti-EBV gH/gL antibody E1D1; SEQ ID NOs: 185 and 186 (antibody, V domains shown)
VH: EVQLVESGGGLVQPGGSLRLSCAASGYTFTDYVISWVRQSPGKGLEWIGEIYPESGNTYYADSVKGRATLSADKSKNTAYLQMNSLRAEDTAIYFCAEGYAMDFWGQGTLVTVSS
VL: DIQMTQSPILLSASVGDRVTITCRSSQSLLHSNGNTYLHWYQQRTNGSPRLLIYKVSNRFSGVPSRFSGSGSGTDFTLTISSLQPEDEADYFCSQSIHVPRTFGAGTKVEIKR
binding specificity to EBV gH/gL by flow cytometry: did not affect its binding specificity to EBV gH/gL
